Assay in all cases: EMSA
Background: A gel shift assay detects complexes by their altered migration in electrophoresis.

Data set [1] has as its target T1, PPARγ2;RXRα (mouse;human, UniProt P37238;P19793 1-505;1-462, |).
Data set [2] deals with T1, PPARγ2;RXRα. This is another data set of the same source.
Data set [3] concerns the target T1, PPARγ2;RXRα. This is another data set of the same source.

Read-outs that look alike come from different tables or passages of the source.

B1: LepRE1 LOF (dsDNA)
DNA 1: AAGATTTGAAATTTCCGCAGAATTGGCTGCAGC
DNA 2: GCTGCAGCCAATTCTGCGGAAATTTCAAATCTT
Turning to B1, the binding result in the data set with PPARγ2;RXRα [1] is on record as “no binding”.

B2: LepRE1 EXT (dsDNA)
DNA 1: AAGATTTGAACTTTCCGCAGGATTGGCTGCAGC
DNA 2: GCTGCAGCCAATCCTGCGGAAAGTTCAAATCTT
For B2, the binding result with PPARγ2;RXRα [2] was “binds”.

B3: LepRE1 DR1 (GOF) (dsDNA)
DNA 1: AAGATTTGAACTTTGAACTGAATTGGCTGCAGC
DNA 2: GCTGCAGCCAATTCAGTTCAAAGTTCAAATCTT
On to B3, for which the binding result in the data set with PPARγ2;RXRα [3] is listed as “binds”.
